Columns and labels:
[1] = Monoterpene synthase assay and product identification with extracts of E. coli expressing Grand fir cDNA clones (Example 3); assay type: biochemical
Protocol: For expression, bacterial strains E. coil XLOLR/pAG3.18, E. coil XLOLR/pAG3.48, E. coli XL1-Blue/pGAG2.2, E. coli XL1-Blue/pGAG3.18, and E. coil BL21(DE3)/pSBAG10were grown to A600=0.5 at 37° C. in 5 ml of LB medium (Sambrock, J., Fritsch, E. F., and Maniatis, T. (1989) Molecular Cloning: A Laboratory Manual, 2d Ed., Cold Spring Harbor Laboratory, Cold Spring Harbor, N.Y.) supplemented with 100 μg ampicillin/ml or 30 μg kanamycin/ml as determined by the vector. Cultures were then induced by addition of 1 mM isopropyl-1-thio-β-D-galactopyranoside and grown for another 12 h at 20° C. Cells were harvested by centrifugation (2000×g, 10 min) and resuspended in either 1 ml monoterpene synthase assay buffer [50 mM Tris/HCl (pH 7.5), 500 mM KCl, 1 mM MnCl2, 5 mM dithiothreitol, 0.05% (w/v) NaHSO3 and 10% (v/v) glycerol], 1 ml sesquiterpene synthase assay buffer [10 mM dibasic potassium phosphate, 1.8 mM monobasic potassium phosphate (pH 7.3), 140 mM NaCl, 10 mM MgCl2, 5 mM dithiothreitol, 0.05% (w/v) NaHSO3 and 10% (v/v) glycerol], or 1 ml diterpene synthase assay buffer [30 mM Hepes (N-2-hydroxyethylpiperazine-N-′2-ethanesulfonic acid, pH 7.2), 7.5 mM MgCl2, 5 mM dithiothreitol, 10 µM MnCl2, 0.05% (w/v) NaHSO3 and 10% (v/v) glycerol].
Cells were disrupted by sonication (Braun-Sonic 2000 with microprobe at maximum power for 15 seconds at 0-4° C.), the homogenates were cleared by centrifugation (18,000×g, 10 min), and 1 ml of the resulting supernatant was assayed for monoterpene synthase activity with 2.5 μM of [1-^3H]geranyl diphosphate, for sesquiterpene synthase activity with 3.5 μM [1-^3H]farnesyl diphosphate, or for diterpene synthase activity with 5 μM [1- ^3H]geranylgeranyl diphosphate following standard protocols (Croteau, R., and Cane, D. E. (1985) Methods Enzymol. 110:383-405; LaFever, R. E., Stofer Vogel, B., and Croteau, R. (1994) Arch. Biochem. Biophys. 313:139-149; Dehal, S. S., and Croteau, R. (1988) Arch. Biochem. Biophys. 261:346-356). In the case of the monoterpene synthase and sesquiterpene synthase assays, the incubation mixture was overlaid with 1 ml pentane to trap volatile products. In all cases, after incubation at 31° C. for 2 h, the reaction mixture was extracted with pentane (3×1 ml) and the combined extract was passed through a 1.5 ml column of anhydrous MgSO4 and silica gel (Mallinckrodt 60 Å) to provide the terpene hydrocarbon fraction free of oxygenated metabolites. The columns were subsequently eluted with 3×1 ml of ether to collect any oxygenated products, and an aliquot of each fraction was taken for liquid scintillation counting to determine conversion rate.
Product Identification—To obtain sufficient product for analysis by radio-GLC (gas liquid chromatography), chiral capillary GLC and GLC-MS (mass spectrum/spectrometry), preparative-scale enzyme incubations were carried out. Thus, the enzyme was prepared from 50 ml of cultured bacterial cells by extraction with 3 ml of assay buffer as above, and the extracts were incubated with excess substrate overnight at 31° C. The hydrocarbon fraction was isolated by elution through MgSO4-silica gel as before, and the pentane eluate was concentrated for evaluation by capillary radio-GLC as described (Croteau, R., and Satterwhite, D. M. (1990) J. Chromatogr. 500:349-354), by chiral column capillary GLC (Lewinsohn, E., Savage, T. J., Gijzen, M., and Croteau, R. (1993) Phytochem. Anal. 4:220-225), and by combined GLC-MS [Hewlett-Packard 6890 GC-MSD with cool (40° C.) on-column injection, detection via electron impact ionization (70 eV), He carrier at 0.7 psi., column:0.25 mm i.d.×30 m fused silica with 0.25 μm film of 5MS (Hewlett-Packard) programmed from 35° C. (5 min hold) to 230° C. at 5° C./min].

[2] = Bohlmann et al. 1997; cited from earlier work

B1: AG3.18: recombinant (−)-pinene synthase from Grand fir encoded by cDNA clone AG3.18 (SEQ ID NO:3; protein SEQ ID NO:4) (protein, listed as Abies grandis)
chain: MALVSTAPLASKSCLHKSLISSTHELKALSRTIPALGMSRRGKSITPSISMSSTTVVTDDGVRRRMGDFHSNLWDDDVIQSLPTAYEEKSYLERAEKLIGEVKNMFNSMSLEDGELMSPLNDLIQRLWIVDSLERLGIHRHFKDEIKSALDYVYSYWGENGIGCGRESVVTDLNSTALGLRTLRLHGYPVSSDVFKAFKGQNGQFSCSENIQTDEEIRGVLNLFRASLIAFPGEKIMDEAEIFSTKYLKEALQKIPVSSLSREIGDVLEYGWHTYLPRLEARNYIQVFGQDTENTKSYVKSKKLLELAKLEFNIFQSLQKRELESLVRWWKESGFPEMTFCRHRHVEYYTLASCIAFEPQHSGFRLGFAKTCHLITVLDDMYDTFGTVDELELFTATMKRWDPSSIDCLPEYMKGVYIAVYDTVNEMAREAEEAQGRDTLTYAREAWEAYIDSYMQEARWIATGYLPSFDEYYENGKVSCGHRISALQPILTMDIPFPDHILKEVDFPSKLNDLACAILRLRGDTRCYKADRARGEEASSISCYMKDNPGVSEEDALDHINAMISDVIKGLNWELLKPDINVPISAKKHAFDIARAFHYGYKYRDGYSVANVETKSLVTRTLLESVPL
prenyl diphosphate substrate utilized (geranyl, farnesyl, geranylgeranyl diphosphate tested) ([1]; cell-free extract of induced E. coli, tritium labeled substrates): only geranyl diphosphate was utilized | α-pinene share of product mixture from geranyl diphosphate ([1]; cell-free extracts of E. coli): 42% | β-pinene share of product mixture from geranyl diphosphate ([1]; cell-free extracts of E. coli): 58% | monoterpene products formed from geranyl diphosphate ([1]; radio-GLC, GLC-MS, chiral GLC): No other monoterpene co-products were detected | (−)-enantiomer share of the α-pinene formed [2]: more than 99%

— US6429014B1, “Monoterpene synthases from grand fir (Abies grandis)” (Washington State University Research Foundation, priority 1997, dated 2002)
